Measured values as given in the supplement of paper PMC7877785.
± gives the uncertainty stated by the source.

Assay: self-splicing fitness, log relative to wild type (ln ratio); higher = more splicing; Tetrahymena group I intron in knt gene, E. coli kanamycin selection, DiMSum; sequences stand for … in CUCUCU…GGAGGGAAAAGUUAUCAGGCAUGCACCUGGUAGCUAGUCUUUAAACCAAUAGAUUGCAUCGGUUUAAAAGGCAAGACCGUCAAAUUGCGGGAAAGGGGUCAACAGCCGUUCAGUACCAAGUCUCAGGGGAAACUUUGAGAUGGCCUUGCAAAGGGUAUGGUAAUAAGCUGACGGACAUGGUCCUAACCACGCAGCCAAGUCCUAAGUCAACAGAUCUUCUGUUGAUAUGGAUGCAGUUCACAGACUAAAUGUCGGUCGGGGAAGAUGUAUUCUUCUCAUAAGAUAUAGUCGGACCUCUCCUUAAUGGGAGCUAGCGGAUGAAGUGAUGCAACACUGGAGCCGCUGGGAACUAAUUUGUAUGCGAAAGUAUAUUGAUUAGUUUUGGAGUACUCGUGGUCG
Method in brief: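 Pooled colonies went to amplicon sequencing on an Illumina HiSeq 2500 after six replicate transformations. The plates were LB agar with 100 μg/mL carbenicillin, 50 μM IPTG and 0.2% rhamnose, with or without 25 μg/mL kanamycin, incubated overnight at 37°C or 30°C. The E. coli BL21(DE3) library had all eight P1ex-region intron nucleotides randomised, the intron placed in the knt kanamycin-resistance gene on pET-22b(+). DiMSum fitness is the error-weighted combination of replicate fold changes, kanamycin against none, normalised to wild type.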

Sequence	self-splicing fitness (ln) (30 °C)	self-splicing fitness (ln) (37 °C)
UUACAGCAAUAUUACGGCAC	-1.77 ± 0.17	-2.26 ± 0.18
UUACAGCAAUAUUACGGCAG	-0.142 ± 0.077	0.248 ± 0.11
UUACAGCAAUAUUACGGGCA	-1.01 ± 0.1	-0.657 ± 0.11
UUACAGCAAUAUUACGGGUA	-1.94 ± 0.097	-0.854 ± 0.087
UUACAGCAAUAUUACGGUGG	-1.08 ± 0.087	-0.457 ± 0.1
UUACAGCAAUAUUACGUAUC	-3.33 ± 0.19	-3.28 ± 0.24
UUACAGCAAUAUUACGUCAC	–	-1.8 ± 0.23
UUACAGCAAUAUUACGUCCC	-3.48 ± 0.24	-1.31 ± 0.25
UUACAGCAAUAUUACGUCCU	-2.11 ± 0.1	-0.74 ± 0.089
UUACAGCAAUAUUACGUCGC	-2.92 ± 0.17	-2.55 ± 0.18
UUACAGCAAUAUUACGUCUA	-0.0634 ± 0.086	-0.0325 ± 0.079
UUACAGCAAUAUUACGUCUG	-1.59 ± 0.13	-1.07 ± 0.12
UUACAGCAAUAUUACGUGAU	-4.22 ± 0.19	-2.37 ± 0.17
UUACAGCAAUAUUACGUGCG	-0.895 ± 0.092	-0.0854 ± 0.12
UUACAGCAAUAUUACGUUGC	-3.56 ± 0.37	-2.37 ± 0.26
UUAGAGCAAUAUUACGAAAC	-2.21 ± 0.41	–
UUAGAGCAAUAUUACGACAG	-0.55 ± 0.082	-0.391 ± 0.1
UUAGAGCAAUAUUACGAUGG	-1.02 ± 0.15	0.108 ± 0.19
UUAGAGCAAUAUUACGCAGC	-3.08 ± 0.35	–
UUAGAGCAAUAUUACGCCCG	-1.21 ± 0.11	-0.643 ± 0.19
UUAGAGCAAUAUUACGGAAA	-2.59 ± 0.19	-1.72 ± 0.23
UUAGAGCAAUAUUACGGGAU	-3.45 ± 0.39	-2.97 ± 0.4
UUAGAGCAAUAUUACGGUGC	-3.76 ± 0.28	-2.11 ± 0.36
UUAGAGCAAUAUUACGUAAG	-2.23 ± 0.097	-1.2 ± 0.1
UUAGAGCAAUAUUACGUCCU	-1.36 ± 0.21	-1.87 ± 0.31

Sequence	self-splicing fitness (ln) (30 °C)	self-splicing fitness (ln) (37 °C)
UUAGAGCAAUAUUACGUUAC	–	-2.17 ± 0.46
UUAGAGCAAUAUUACGUUGG	-1.89 ± 0.1	-1.59 ± 0.14
UUAGAGCAAUAUUACGUUUA	-2.01 ± 0.13	-0.913 ± 0.15
UUAGAGCAAUAUUACGUUUG	-2.04 ± 0.11	-1.05 ± 0.14
UUAUAGCAAUAUUACGAAAU	-3.75 ± 0.34	-1.34 ± 0.3
UUAUAGCAAUAUUACGAACG	-0.792 ± 0.17	-0.293 ± 0.21
UUAUAGCAAUAUUACGACGU	-3.45 ± 0.25	-1.14 ± 0.16
UUAUAGCAAUAUUACGAGGA	-2.68 ± 0.3	-1.01 ± 0.23
UUAUAGCAAUAUUACGAUCA	-0.672 ± 0.15	-0.403 ± 0.17
UUAUAGCAAUAUUACGAUGU	-2.57 ± 0.2	-1.57 ± 0.23
UUAUAGCAAUAUUACGAUUA	-0.871 ± 0.11	-0.272 ± 0.13
UUAUAGCAAUAUUACGCAUG	-1.67 ± 0.25	-0.364 ± 0.23
UUAUAGCAAUAUUACGCGAA	-1.97 ± 0.2	-1.53 ± 0.34
UUAUAGCAAUAUUACGCGCU	-2.25 ± 0.14	-1.55 ± 0.13
UUAUAGCAAUAUUACGCGGU	-3.14 ± 0.28	-1.64 ± 0.28
UUAUAGCAAUAUUACGGAGU	-3.38 ± 0.32	-2.15 ± 0.3
UUAUAGCAAUAUUACGGCGG	-0.333 ± 0.16	0.825 ± 0.2
UUAUAGCAAUAUUACGGGAU	-2.78 ± 0.39	-3.5 ± 0.42
UUAUAGCAAUAUUACGGGCU	-2 ± 0.33	-1.3 ± 0.22
UUAUAGCAAUAUUACGUAAU	-3.23 ± 0.31	-2.11 ± 0.36
UUAUAGCAAUAUUACGUGUC	-4.44 ± 0.36	-2.71 ± 0.26
UUAUAGCAAUAUUACGUUUG	-2.12 ± 0.15	-1.14 ± 0.18
UUCAAGCAAUAUUACGAACU	-2.74 ± 0.27	-1.62 ± 0.25
UUCAAGCAAUAUUACGACAG	-1.5 ± 0.11	-1.1 ± 0.095
UUCAAGCAAUAUUACGAGAC	-3.86 ± 0.23	-2.23 ± 0.19

Sequence	self-splicing fitness (ln) (30 °C)	self-splicing fitness (ln) (37 °C)
UUCAAGCAAUAUUACGAGAG	-1.5 ± 0.11	-1.34 ± 0.11
UUCAAGCAAUAUUACGAUCG	-1.26 ± 0.1	-2.3 ± 0.2
UUCAAGCAAUAUUACGAUUG	-3.63 ± 0.35	-2.24 ± 0.27
UUCAAGCAAUAUUACGCGAC	-2.61 ± 0.24	-1.91 ± 0.2
UUCAAGCAAUAUUACGCGCG	-1.39 ± 0.082	-0.634 ± 0.13
UUCAAGCAAUAUUACGCUAA	-1.35 ± 0.2	-0.551 ± 0.19
UUCAAGCAAUAUUACGCUCG	-3.13 ± 0.33	-2.15 ± 0.2
UUCAAGCAAUAUUACGGAGG	-4.04 ± 0.27	-2.58 ± 0.19
UUCAAGCAAUAUUACGGAUA	-1.18 ± 0.14	-0.384 ± 0.12
UUCAAGCAAUAUUACGGCAC	-2.66 ± 0.4	-1.11 ± 0.33
UUCAAGCAAUAUUACGGCCA	-1.31 ± 0.13	-0.977 ± 0.13
UUCAAGCAAUAUUACGGCGA	0.0413 ± 0.081	0.263 ± 0.11
UUCAAGCAAUAUUACGGCUC	-1.68 ± 0.17	-0.923 ± 0.23
UUCAAGCAAUAUUACGGGCA	-0.666 ± 0.11	0.111 ± 0.1
UUCAAGCAAUAUUACGGGGA	-1.49 ± 0.1	-0.885 ± 0.1
UUCAAGCAAUAUUACGGUAU	-2.84 ± 0.11	-1.64 ± 0.11
UUCAAGCAAUAUUACGGUGC	-2.77 ± 0.42	-0.868 ± 0.3
UUCAAGCAAUAUUACGGUUC	-4.02 ± 0.32	-2.78 ± 0.48
UUCAAGCAAUAUUACGUAGU	-3.6 ± 0.22	-1.61 ± 0.2
UUCAAGCAAUAUUACGUCGU	-2.69 ± 0.15	-1.44 ± 0.14
UUCAAGCAAUAUUACGUCUG	-3.08 ± 0.24	-1.46 ± 0.14
UUCAAGCAAUAUUACGUGCU	-4.47 ± 0.42	-2.86 ± 0.35
UUCAAGCAAUAUUACGUUUG	-3.95 ± 0.34	-2.31 ± 0.28
UUCCAGCAAUAUUACGACGG	-2.74 ± 0.32	-1.98 ± 0.29
UUCCAGCAAUAUUACGAGCU	-3.64 ± 0.23	-2.71 ± 0.27

Sequence	self-splicing fitness (ln) (30 °C)	self-splicing fitness (ln) (37 °C)
UUCCAGCAAUAUUACGAGUG	-0.354 ± 0.059	-0.52 ± 0.069
UUCCAGCAAUAUUACGCAGA	-2.09 ± 0.21	-1.32 ± 0.16
UUCCAGCAAUAUUACGCCAG	-1.93 ± 0.15	-0.95 ± 0.15
UUCCAGCAAUAUUACGCUCG	–	-0.977 ± 0.23
UUCCAGCAAUAUUACGCUGA	-3.73 ± 0.24	-1.91 ± 0.14
UUCCAGCAAUAUUACGGCAA	-0.0711 ± 0.1	0.362 ± 0.12
UUCCAGCAAUAUUACGGCUG	-3.09 ± 0.2	-2.68 ± 0.25
UUCCAGCAAUAUUACGGGAC	–	-1.29 ± 0.39
UUCCAGCAAUAUUACGGGGG	-3.3 ± 0.15	-1.57 ± 0.14
UUCCAGCAAUAUUACGGUUU	-0.65 ± 0.064	-0.427 ± 0.063
UUCCAGCAAUAUUACGUAAA	-0.607 ± 0.086	0.616 ± 0.12
UUCCAGCAAUAUUACGUAGC	-3.54 ± 0.17	-1.51 ± 0.2
UUCCAGCAAUAUUACGUCGC	-1.69 ± 0.32	-1.23 ± 0.45
UUCCAGCAAUAUUACGUUGC	-2.4 ± 0.15	-2.47 ± 0.33
UUCGAGCAAUAUUACGAAAA	-2.97 ± 0.31	-1.28 ± 0.18
UUCGAGCAAUAUUACGAAAC	–	-1.41 ± 0.43
UUCGAGCAAUAUUACGAGGA	-1.87 ± 0.27	-2.76 ± 0.44
UUCGAGCAAUAUUACGAGUA	-1.57 ± 0.15	-1.43 ± 0.18
UUCGAGCAAUAUUACGAUAA	-1.53 ± 0.097	-0.787 ± 0.11
UUCGAGCAAUAUUACGAUCG	-2.94 ± 0.32	-1.53 ± 0.43
UUCGAGCAAUAUUACGCAGU	-2.87 ± 0.36	-1.61 ± 0.33
UUCGAGCAAUAUUACGCCAG	-2.94 ± 0.24	-0.74 ± 0.21
